In article PMC7315409 (Science translational medicine, 2020):

Target: T1, recombinant high mobility group box 1 (HMGB1) (human, UniProt P09429 1-215)
T1 sequence (looked up): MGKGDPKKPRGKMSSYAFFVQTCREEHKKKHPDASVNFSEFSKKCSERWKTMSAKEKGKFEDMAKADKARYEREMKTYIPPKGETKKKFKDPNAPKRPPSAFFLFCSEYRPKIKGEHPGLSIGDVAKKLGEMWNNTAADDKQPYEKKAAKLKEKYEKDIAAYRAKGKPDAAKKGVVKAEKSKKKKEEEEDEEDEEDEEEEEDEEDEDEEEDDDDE
Experiment: radioligand binding

B1: purified syndecan-1 (natural protein)
chain: QIVAVNVPPEDQDGSGDDSDNFSGSGTGALPDTLSRQTPSTWKDVWLLTATPTAPEPTSSNTETAFTSVLPAGEKPEEGEPVLHVEAEPGFTARDKEKEVTTRPRETVQLPITQRASTVRVTTAQAAVTSHPHGGMQPGLHETSAPTAPGQPDHQPPRVEGGGTSVIKEVVEDGTANQLPAGEGSGEQDFTFETSGENTAVAAVEPGLRNQPPVDEGATGASQSLLDRKEVLG
modifications: heparan sulfate (HS) polysaccharide side chains on the core protein
  IC50: 500 to 550 nM
